Laboratory results: patent US20250019439A1 (Adimab, published 2025)

What was measured:
[1] = target: T1, ADI-70330; experiment: SPR Carterra avidity, yeast anti-ID
T1 construct: anti-CD3 antibody made in CHO cells, captured by anti-human Fc
Experimental: (§1) Kinetic analysis was conducted at 25° C. in an HBSTE running buffer system (Carterra Cat #3630) using a Carterra LSA (Carterra USA, Salt Lake City, UT). The sample compartment was maintained at 20° C. for the duration of each experiment.
(§2) For antibody capture experiments, a goat anti-human Fc antibody (Jackson ImmunoResearch) was covalently coupled to an HC30M sensor chip surface via standard amine coupling (1:1 EDC:NHS) and then blocked with ethanolamine (1.0 M, pH 8.5). Covalent coupling steps were performed in 25 mM MES buffer (Carterra, Cat #3625) plus 0.05% Tween20. The anti-CD3 antibodies (100 nM in running buffer) were flowed over discrete regions of interest on the chip surface for 5 minutes. […] Dissociation of the anti-idiotype antibodies was monitored for 300s. Several blank buffer samples were injected over the entire chip surface at the start of each non-regenerative kinetic cycle. The preceding blank buffer injection was used for blank surface subtraction. At the end of each non-regenerative kinetic cycle, all surfaces were regenerated via two 30s injections of 10 mM glycine, pH 1.7.
(§3) For data processing and fitting, sensorgrams were double reference subtracted with a baseline drift correction of 4 RU. Sensorgrams were y-aligned and baseline corrected, filtered and cropped to include only the association and dissociation steps. Data was fitted to a 1:1 binding model using Carterra Kinetics Data Analysis software version 1.7.1.3055.

[2] = target: T2, ADI-67450; experiment: SPR Carterra avidity, yeast anti-ID
T2 construct: anti-CD3 antibody made in CHO cells, captured by anti-human Fc
Experimental: as §1, §2, §3

[3] = target: T3, ADI-67445; experiment: SPR Carterra avidity, yeast anti-ID
T3 construct: anti-CD3 antibody made in CHO cells, captured by anti-human Fc
Experimental: as §1, §2, §3

[4] = target: T4, ADI-76362; experiment: SPR Carterra avidity, yeast anti-ID
T4 construct: anti-CD3 antibody made in CHO cells, captured by anti-human Fc
Experimental: as §1, §2, §3

[5] = target: T5, ADI-26909; experiment: SPR Carterra avidity, yeast anti-ID
T5 construct: anti-CD3 antibody made in CHO cells, captured by anti-human Fc
Experimental: as §1, §2, §3

[6] = target: T6, ADI-26915; experiment: SPR Carterra avidity, yeast anti-ID
T6 construct: anti-CD3 antibody made in CHO cells, captured by anti-human Fc
Experimental: as §1, §2, §3

[7] = target: T7, ADI-70327; experiment: SPR Carterra avidity, yeast anti-ID
T7 construct: anti-CD3 antibody made in CHO cells, captured by anti-human Fc
Experimental: as §1, §2, §3

[8] = target: T8, ADI-26913 IgG; experiment: SPR Carterra avidity, yeast anti-ID
T8 construct: anti-CD3 IgG
Experimental: as §1, §2, §3

[9] = target: T9, ADI-74965; experiment: SPR Carterra avidity, yeast anti-ID
T9 construct: pH-dependent anti-CD3 antibody made in CHO cells
Experimental: as §1, §2, §3

[10] = target: T10, ADI-74968; experiment: SPR Carterra avidity, yeast anti-ID
T10 construct: pH-dependent anti-CD3 antibody made in CHO cells
Experimental: as §1, §2, §3

[11] = target: T11, ADI-26916 IgG; experiment: SPR Carterra avidity, yeast anti-ID
T11 construct: anti-CD3 IgG
Experimental: as §1, §2, §3

[12] = target: T12, ADI-26921 IgG; experiment: SPR Carterra avidity, yeast anti-ID
T12 construct: anti-CD3 IgG
Experimental: as §1, §2, §3

[13] = target: T13, ADI-67447; experiment: SPR Carterra avidity, yeast anti-ID
T13 construct: anti-CD3 antibody made in CHO cells, captured by anti-human Fc
Experimental: as §1, §2, §3

[14] = target: T14, ADI-48587; experiment: SPR Carterra avidity, yeast anti-ID
T14 construct: pH-dependent anti-CD3 antibody made in CHO cells
Experimental: as §1, §2, §3

[15] = target: T15, ADI-70326; experiment: SPR Carterra avidity, yeast anti-ID
T15 construct: anti-CD3 antibody made in CHO cells, captured by anti-human Fc
Experimental: as §1, §2, §3

[16] = target: T16, ADI-76357; experiment: SPR Carterra avidity, yeast anti-ID
T16 construct: anti-CD3 antibody made in CHO cells, captured by anti-human Fc
Experimental: as §1, §2, §3

[17] = target: T17, ADI-48592; experiment: SPR Carterra avidity, yeast anti-ID
T17 construct: pH-dependent anti-CD3 antibody made in CHO cells
Experimental: as §1, §2, §3

[18] = target: T18, ADI-74966; experiment: SPR Carterra avidity, yeast anti-ID
T18 construct: pH-dependent anti-CD3 antibody made in CHO cells
Experimental: as §1, §2, §3

[19] = target: T19, ADI-26906 IgG; experiment: SPR Carterra avidity, yeast anti-ID
T19 construct: anti-CD3 IgG
Experimental: as §1, §2, §3

[20] = target: T20, ADI-26912; experiment: SPR Carterra avidity, yeast anti-ID
T20 construct: anti-CD3 antibody made in CHO cells, captured by anti-human Fc
Experimental: as §1, §2, §3

[21] = target: T21, ADI-76358; experiment: SPR Carterra avidity, yeast anti-ID
T21 construct: anti-CD3 antibody made in CHO cells, captured by anti-human Fc
Experimental: as §1, §2, §3

[22] = target: T22, ADI-76360; experiment: SPR Carterra avidity, yeast anti-ID
T22 construct: anti-CD3 antibody made in CHO cells, captured by anti-human Fc
Experimental: as §1, §2, §3

[23] = target: T23, ADI-48650; experiment: SPR Carterra avidity, yeast anti-ID
T23 construct: pH-dependent anti-CD3 antibody made in CHO cells
Experimental: as §1, §2, §3

[24] = target: T24, CTL-62223; experiment: SPR Carterra avidity, yeast anti-ID
T24 construct: also called mosunetuzumab
Experimental: as §1, §2, §3

[25] = target: T25, ADI-50024; experiment: SPR Carterra avidity, yeast anti-ID
T25 construct: anti-CD3 antibody made in CHO cells, captured by anti-human Fc
Experimental: as §1, §2, §3

[26] = target: T26, ADI-76361; experiment: SPR Carterra avidity, yeast anti-ID
T26 construct: anti-CD3 antibody made in CHO cells, captured by anti-human Fc
Experimental: as §1, §2, §3

[27] = target: T27, CTL-62240; experiment: SPR Carterra, yeast anti-ID
T27 construct: also called ONO-4685
Experimental: as §1, §2, §3

[28] = target: T28, CTL-62227; experiment: SPR Carterra, yeast anti-ID
T28 construct: also called odronextamab
Experimental: as §1, §2, §3

[29] = target: T29, CTL-62228; experiment: SPR Carterra, yeast anti-ID
T29 construct: also called glofitamab
Experimental: as §1, §2, §3

[30] = target: T30, ADI-48576; experiment: SPR Carterra, yeast anti-ID
T30 construct: pH-dependent anti-CD3 antibody made in CHO cells
Experimental: as §1, §2, §3

[31] = target: T31, ADI-22523 IgG; experiment: BLI; tip anti-ID IgG, solution ADI-22523 IgG
T31 construct: anti-CD3 IgG
Experimental: (§4) ForteBio affinity measurements were performed generally as previously described (Estep et al., MAbs. 2013 5(2):270-8). Briefly, ForteBio affinity measurements were performed by loading antibody IgG or Fabs on-line onto AHC sensors. Sensors were equilibrated off-line in assay buffer for 30 minutes and then monitored on-line for 60 seconds for baseline establishment. For avid binding measurement, sensors with loaded antibodies were exposed to IgG or Fab solutions for 3 minutes, afterwards they were transferred to assay buffer for 3 minutes for off-rate measurement. Kinetics data were fit using a 1:1 binding model in the data analysis software provided by ForteBio to obtain equilibrium dissociation constant (KD=koff/kₒₙ) values. In each column, tip-immobilized antibodies are listed first and solution antibodies second.

[32] = target: T32, ADI-26920 IgG; experiment: SPR Carterra avidity, yeast anti-ID, *koff limit
T32 construct: anti-CD3 IgG
Experimental: as §1, §2, §3

[33] = target: T33, ADI-26924; experiment: SPR Carterra avidity, yeast anti-ID, *koff limit
T33 construct: anti-CD3 antibody made in CHO cells, captured by anti-human Fc
Experimental: as §1, §2, §3

[34] = target: T34, ADI-26919; experiment: SPR Carterra avidity, yeast anti-ID, *koff limit
T34 construct: anti-CD3 antibody made in CHO cells, captured by anti-human Fc
Experimental: as §1, §2, §3

[35] = target: T35, ADI-74967; experiment: SPR Carterra avidity, yeast anti-ID, *koff limit
T35 construct: pH-dependent anti-CD3 antibody made in CHO cells
Experimental: as §1, §2, §3

[36] = target: T36, ADI-26943; experiment: SPR Carterra avidity, yeast anti-ID, *koff limit
T36 construct: anti-CD3 antibody made in CHO cells, captured by anti-human Fc
Experimental: as §1, §2, §3

[37] = target: T37, ADI-76359; experiment: SPR Carterra avidity, yeast anti-ID, *koff limit
T37 construct: anti-CD3 antibody made in CHO cells, captured by anti-human Fc
Experimental: as §1, §2, §3

[38] = target: T38, ADI-22523 Fab; experiment: BLI; tip anti-ID IgG, solution ADI-22523 Fab
T38 construct: anti-CD3 Fab by papain digestion of the IgG
Experimental: as §4

T26 sequence (VH, as listed by the source, chain 1 of 2): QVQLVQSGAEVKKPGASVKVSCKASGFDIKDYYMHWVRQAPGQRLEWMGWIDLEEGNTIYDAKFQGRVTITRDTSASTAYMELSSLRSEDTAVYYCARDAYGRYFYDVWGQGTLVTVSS
T26 sequence (VL, as listed by the source, chain 2 of 2): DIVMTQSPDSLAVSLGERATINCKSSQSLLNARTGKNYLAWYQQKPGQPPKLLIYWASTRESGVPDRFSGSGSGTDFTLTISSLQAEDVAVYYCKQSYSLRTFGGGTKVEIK
T20 sequence (VH, as listed by the source, chain 1 of 2): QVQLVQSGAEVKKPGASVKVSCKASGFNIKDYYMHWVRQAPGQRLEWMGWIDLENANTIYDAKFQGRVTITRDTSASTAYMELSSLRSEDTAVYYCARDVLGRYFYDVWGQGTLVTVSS
T20 sequence (VL, as listed by the source, chain 2 of 2): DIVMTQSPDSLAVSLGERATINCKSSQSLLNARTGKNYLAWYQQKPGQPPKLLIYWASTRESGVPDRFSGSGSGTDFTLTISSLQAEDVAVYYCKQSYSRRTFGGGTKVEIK
T9 sequence (VH, as listed by the source, chain 1 of 2): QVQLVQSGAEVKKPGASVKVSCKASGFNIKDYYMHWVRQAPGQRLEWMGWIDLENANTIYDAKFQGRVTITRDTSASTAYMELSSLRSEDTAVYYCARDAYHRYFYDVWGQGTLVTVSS
T9 sequence (VL, as listed by the source, chain 2 of 2): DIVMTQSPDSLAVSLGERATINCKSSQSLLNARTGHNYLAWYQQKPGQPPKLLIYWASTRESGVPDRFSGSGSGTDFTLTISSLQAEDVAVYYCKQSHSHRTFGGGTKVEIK
T10 sequence (VL, as listed by the source, chain 2 of 2): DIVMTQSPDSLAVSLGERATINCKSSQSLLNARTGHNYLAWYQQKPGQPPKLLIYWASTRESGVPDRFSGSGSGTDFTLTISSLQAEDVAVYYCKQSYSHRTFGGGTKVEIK
T8 sequence (VH, as listed by the source limits assumed, chain 1 of 2): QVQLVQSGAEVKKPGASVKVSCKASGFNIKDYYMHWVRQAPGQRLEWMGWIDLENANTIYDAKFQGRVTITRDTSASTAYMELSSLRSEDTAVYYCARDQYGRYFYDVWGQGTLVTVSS
T36 sequence (VH, as listed by the source, chain 1 of 2): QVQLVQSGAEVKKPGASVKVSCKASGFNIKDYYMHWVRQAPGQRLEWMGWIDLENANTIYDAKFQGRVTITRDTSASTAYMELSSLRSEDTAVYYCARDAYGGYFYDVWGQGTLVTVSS
T36 sequence (VL, as listed by the source, chain 2 of 2): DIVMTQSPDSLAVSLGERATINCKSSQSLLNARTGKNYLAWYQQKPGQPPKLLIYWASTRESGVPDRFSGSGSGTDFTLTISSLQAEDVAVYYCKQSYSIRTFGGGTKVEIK
T12 sequence (VH, as listed by the source limits assumed, chain 1 of 2): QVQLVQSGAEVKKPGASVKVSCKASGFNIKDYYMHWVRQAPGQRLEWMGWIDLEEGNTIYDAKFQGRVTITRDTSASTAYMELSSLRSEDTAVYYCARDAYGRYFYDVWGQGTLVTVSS
T37 sequence (VH, as listed by the source, chain 1 of 2): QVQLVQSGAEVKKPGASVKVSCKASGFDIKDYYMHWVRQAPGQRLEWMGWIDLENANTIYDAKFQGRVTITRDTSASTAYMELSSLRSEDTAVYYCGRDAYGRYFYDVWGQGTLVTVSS
T6 sequence (VH, as listed by the source, chain 1 of 2): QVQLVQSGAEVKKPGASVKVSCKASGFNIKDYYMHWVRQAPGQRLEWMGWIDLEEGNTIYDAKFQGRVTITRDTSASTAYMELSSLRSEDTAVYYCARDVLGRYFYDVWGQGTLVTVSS
T25 sequence (VH, as listed by the source limits assumed, chain 1 of 2): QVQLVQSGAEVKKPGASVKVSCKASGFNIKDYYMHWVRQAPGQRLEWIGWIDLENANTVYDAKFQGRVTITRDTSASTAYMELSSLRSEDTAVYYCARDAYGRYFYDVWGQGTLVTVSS
T25 sequence (VL, as listed by the source limits assumed, chain 2 of 2): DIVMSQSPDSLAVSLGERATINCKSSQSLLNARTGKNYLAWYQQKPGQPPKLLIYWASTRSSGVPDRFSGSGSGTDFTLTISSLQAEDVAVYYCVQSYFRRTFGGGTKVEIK
T16 sequence (VH, as listed by the source, chain 1 of 2): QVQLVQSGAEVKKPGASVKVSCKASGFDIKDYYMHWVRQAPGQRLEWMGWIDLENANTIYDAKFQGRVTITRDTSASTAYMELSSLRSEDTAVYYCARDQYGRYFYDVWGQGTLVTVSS
T33 sequence (VH, as listed by the source, chain 1 of 2): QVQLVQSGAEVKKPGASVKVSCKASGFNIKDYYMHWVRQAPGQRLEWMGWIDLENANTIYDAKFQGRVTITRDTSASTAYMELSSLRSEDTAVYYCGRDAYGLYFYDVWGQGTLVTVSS
T23 sequence (VH, as listed by the source, chain 1 of 2): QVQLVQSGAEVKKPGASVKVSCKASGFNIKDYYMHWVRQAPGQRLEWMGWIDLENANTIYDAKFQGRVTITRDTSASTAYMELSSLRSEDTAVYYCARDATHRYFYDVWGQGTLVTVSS
T23 sequence (VL, as listed by the source, chain 2 of 2): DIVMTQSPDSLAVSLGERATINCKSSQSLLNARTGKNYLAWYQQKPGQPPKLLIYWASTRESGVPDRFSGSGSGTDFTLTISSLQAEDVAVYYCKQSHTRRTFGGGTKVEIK
T30 sequence (VH, as listed by the source, chain 1 of 2): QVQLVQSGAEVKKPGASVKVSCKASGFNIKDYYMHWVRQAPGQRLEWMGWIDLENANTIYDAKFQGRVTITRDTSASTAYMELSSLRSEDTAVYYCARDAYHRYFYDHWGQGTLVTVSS
T30 sequence (VL, as listed by the source, chain 2 of 2): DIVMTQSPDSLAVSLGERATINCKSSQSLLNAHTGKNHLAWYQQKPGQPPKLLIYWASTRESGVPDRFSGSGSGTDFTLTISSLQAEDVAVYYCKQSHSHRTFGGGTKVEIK
T17 sequence (VH, as listed by the source, chain 1 of 2): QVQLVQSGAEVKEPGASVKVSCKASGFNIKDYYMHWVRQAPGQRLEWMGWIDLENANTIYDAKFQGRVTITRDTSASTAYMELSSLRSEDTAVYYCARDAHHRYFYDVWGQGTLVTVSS
T17 sequence (VL, as listed by the source, chain 2 of 2): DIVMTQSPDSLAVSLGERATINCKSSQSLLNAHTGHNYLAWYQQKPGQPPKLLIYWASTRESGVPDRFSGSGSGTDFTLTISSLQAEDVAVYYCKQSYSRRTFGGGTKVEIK
T11 sequence (VH, as listed by the source, chain 1 of 2): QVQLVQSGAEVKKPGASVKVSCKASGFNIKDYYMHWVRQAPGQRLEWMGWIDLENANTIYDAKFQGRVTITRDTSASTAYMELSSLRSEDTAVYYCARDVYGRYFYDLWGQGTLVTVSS
T24 sequence (VH, as listed by the source, chain 1 of 2): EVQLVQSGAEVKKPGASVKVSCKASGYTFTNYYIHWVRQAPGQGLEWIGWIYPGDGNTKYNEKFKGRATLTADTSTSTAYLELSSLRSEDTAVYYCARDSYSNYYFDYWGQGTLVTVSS
T24 sequence (VL, as listed by the source, chain 2 of 2): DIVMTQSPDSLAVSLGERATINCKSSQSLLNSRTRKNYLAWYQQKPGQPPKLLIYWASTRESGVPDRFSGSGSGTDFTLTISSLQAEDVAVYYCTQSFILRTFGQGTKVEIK
T15 sequence (VH, as listed by the source limits assumed, chain 1 of 2): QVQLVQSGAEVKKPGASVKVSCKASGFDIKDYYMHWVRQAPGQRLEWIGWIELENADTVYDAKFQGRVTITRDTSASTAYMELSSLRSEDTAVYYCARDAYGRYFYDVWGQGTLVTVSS

B1: ADI-30242 (antibody, V domains shown)
VH: QVQLVQSGAEVKKPGSSVKVSCKASGGTFSSYAISWVRQAPGQGLEWMGGIIPIFGTANYAQKFQGRVTITADESTSTAYMELSSLRSEDTAVYYCARGAPNYYGSGGYDDGWFDPWGQGTLVTVSS
VL: EIVLTQSPGTLSLSPGERATLSCRASQSVSSSYLAWYQQKPGQAPRLLIYGASSRATGIPDRFSGSGSGTDFTLTISRLEPEDFAVYYCQQFGRDPTFGGGTKVEIK
notes: anti-ID IgG
Work on B1 yielded a Kd [1] of 40 nM, a Kd [2] of 56 nM and a Kd [3] of 11 nM. For the same binder, the Kd [4] was 27 nM, the Kd [5] was 17 nM and the Kd [6] was 56 nM. For the same binder, the Kd [7] was 45 nM, the Kd [8] was 24 nM and the Kd [9] was 45 nM. The Kd [10] was 36 nM, the Kd [11] was 35 nM and the Kd [12] was 21 nM. For the same binder, the Kd [13] was 8.4 nM, the Kd [14] was 43 nM and the Kd [15] was 45 nM. For the same binder, the Kd [16] was 22 nM, the binding result [17] was “binds” and the Kd [18] was 25 nM. For the same binder, the Kd [19] was 5.9 nM, the Kd [20] was 33 nM and the Kd [21] was 42 nM. The Kd [22] was 11 nM, the Kd [23] was 44 nM and the Kd [24] was 31 nM. The Kd [25] was 11 nM, the Kd [26] was 15 nM and the binding result [27] was “no binding (tested: up to 200 nM)”. B1: no binding (tested: up to 200 nM) [28]; no binding (tested: up to 200 nM) [29]; no binding (tested: up to 200 nM) [30]. The Kd [31] was 0.57 nM, the Kd [32] was 4.2 nM and the Kd [33] was 5.3 nM. The Kd [34] was 3.5 nM, the Kd [35] was 5.6 nM and the Kd [36] was 6.2 nM. The Kd [37] was 3.7 nM and the Kd [38] was 37.4 nM.
